Read-outs that look alike come from different tables or passages of the source.
Legend:
Assay in all cases: BLI
[1] = biological target: IgG1 LALA RUBY v9 #2 (human)
[2] = biological target: IgG1 mAb (human)
[3] = biological target: IgG1 RUBY v9 #15 (human)
[4] = biological target: IgG2 mAb (human)
[5] = biological target: IgG2 RUBY v9 #16 (human)
[6] = biological target: IgG1 LALA RUBY #10 (human)
[7] = biological target: IgG1 LALA mAb (human)
[8] = biological target: IgG1 mAb (human); remark: listed apart in the source
[9] = biological target: IgG1 RUBY v9 #15 (human); remark: listed apart in the source
[10] = biological target: IgG2 mAb (human); remark: listed apart in the source
[11] = biological target: IgG2 RUBY v9 #16 (human); remark: listed apart in the source

hFcγRI (from UniProt P12314) (receptor)
Kd [1]: 40 nM

hFcγRIIIa 176 V (from UniProt P08637) (receptor)
Kd [2]: 50 nM
koff [2]: 0.03 s⁻¹
kon [2]: 600000 M⁻¹ s⁻¹
Kd [3]: 30 nM
koff [3]: 0.03 s⁻¹
kon [3]: 1e+06 M⁻¹ s⁻¹

hFcγRIIa (from UniProt P12318) (receptor)
Kd [2]: 300 nM

mFcγRIV (from UniProt A0A0B4J1G0) (receptor)
Kd [2]: 50 nM
kon [2]: 400000 M⁻¹ s⁻¹
Kd [3]: 40 nM

recombinant human FcRn (from UniProt P55899) (receptor)
Kd [2]: 500 nM
koff [2]: 0.05 s⁻¹
kon [2]: 100000 M⁻¹ s⁻¹
Kd [4]: 600 nM
koff [4]: 0.1 s⁻¹
kon [4]: 200000 M⁻¹ s⁻¹
Kd [5]: 1000 nM
koff [5]: 0.2 s⁻¹
kon [5]: 200000 M⁻¹ s⁻¹
Kd [3]: 600 nM
koff [3]: 0.08 s⁻¹
kon [3]: 100000 M⁻¹ s⁻¹
Kd [6]: 600 nM
koff [6]: 0.08 s⁻¹
kon [6]: 100000 M⁻¹ s⁻¹
Kd [7]: 500 nM
koff [7]: 0.1 s⁻¹
kon [7]: 200000 M⁻¹ s⁻¹

recombinant mouse FcRn (from UniProt Q61559) (receptor)
Kd [6]: 70 nM
koff [6]: 0.007 s⁻¹
kon [6]: 100000 M⁻¹ s⁻¹

B1: mFcγRI (receptor)
chain: EVVNATKAVITLQPPWVSIFQKENVTLWCEGPHLPGDSSTQWFINGTAVQISTPSYSIPEASFQDSGEYRCQIGSSMPSDPVQLQIHNDWLLLQASRRVLTEGEPLALRCHGWKNKLVYNVVFYRNGKSFQFSSDSEVAILKTNLSHSGIYHCSGTGRHRYTSAGVSITVKELFTTPVLRASVSSPFPEGSLVTLNCETNLLLQRPGLQLHFSFYVGSKILEYRNTSSEYHIARAEREDAGFYWCEVATEDSSVLKRSPELELQVLGPQSSAP
Kd [8]: 40 nM
koff [8]: 0.02 s⁻¹
kon [8]: 600000 M⁻¹ s⁻¹
Kd [9]: 40 nM
koff [9]: 0.03 s⁻¹
kon [9]: 700000 M⁻¹ s⁻¹

B2: mFcγRIII (receptor)
chain: ALPKAVVKLDPPWIQVLKEDMVTLMCEGTHNPGNSSTQWFHNGRSIRSQVQASYTFKATVNDSGEYRCQMEQTRLSDPVDLGVISDWLLLQTPQRVFLEGETITLRCHSWRNKLLNRISFFHNEKSVRYHHYKSNFSIPKANHSHSGDYYCKGSLGSTQHQSKPVTITVQDPATTSSISLVWYHT
Kd [8]: 20 nM
koff [8]: 0.006 s⁻¹
kon [8]: 400000 M⁻¹ s⁻¹
Kd [10]: 10 nM
koff [10]: 0.008 s⁻¹
kon [10]: 700000 M⁻¹ s⁻¹
Kd [11]: 10 nM
koff [11]: 0.006 s⁻¹
kon [11]: 600000 M⁻¹ s⁻¹
Kd [9]: 10 nM
koff [9]: 0.01 s⁻¹
kon [9]: 700000 M⁻¹ s⁻¹
